Consider 1 molecule from patent US20180222961A1.

This test deals with HLA-A*02:01 (human). Kind of test: UV-exchange b2m ELISA; exchange-yield grade. Particulars: remark: other sources report otherwise.

Regarding SVFAHPRKL […], the peptide exchange yield was in the range of 50 to 75%.
